Measurements reported in the supplement of paper PMC9112550, “Optimization of the antimicrobial peptide Bac7 by deep mutational scanning” (BMC Biology, 2022).

Test system: Escherichia coli TOP10
Assay: shrunken log2 fold change of peptide-encoding DNA abundance (4.5 h post-induction vs induction); higher = less antimicrobial activity (less host growth inhibition)
Details: time post-induction: 4.5 h; library: site-saturation at positions 5, 18, 19, 20
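Note: peptides expressed intracellularly from a pBAD plasmid library in pooled LB shake-flask culture, induced with 0.3% L-arabinose, DNA abundance read by NGS, three biological replicates, DESeq2 with apeglm shrinkage.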

Sequence	shrunken log2 fold change
RRIRARPPRLPRPRPRPHGVPRP	0.0905
RRIRQRPPRLPRPRPRPELWPRP	0.27
RRIRHRPPRLPRPRPRPDDFPRP	-0.198
RRIRERPPRLPRPRPRPLVWPRP	0.339
RRIRRRPPRLPRPRPRPLPIPRP	0.451
RRIRHRPPRLPRPRPRPYWQPRP	-0.0678
RRIRARPPRLPRPRPRPTHQPRP	0.528
RRIRFRPPRLPRPRPRPYKPPRP	0.108
RRIRFRPPRLPRPRPRPCMGPRP	-0.49
RRIRMRPPRLPRPRPRPSGYPRP	-0.0299
RRIRGRPPRLPRPRPRPSPDPRP	0.69
RRIRVRPPRLPRPRPRPFERPRP	0.0254
RRIRKRPPRLPRPRPRPVHFPRP	-0.0637
RRIRKRPPRLPRPRPRPESCPRP	0.183
RRIRFRPPRLPRPRPRPKSWPRP	0.199
RRIRKRPPRLPRPRPRPSLQPRP	0.447
RRIRSRPPRLPRPRPRPWSNPRP	-0.0394
RRIRKRPPRLPRPRPRPMYNPRP	-0.315
RRIRHRPPRLPRPRPRPKQWPRP	0.0913
RRIRFRPPRLPRPRPRPMWFPRP	-0.0145
RRIRNRPPRLPRPRPRPVIVPRP	-0.112
RRIRTRPPRLPRPRPRPSLIPRP	-0.424
RRIRKRPPRLPRPRPRPWLCPRP	0.466
RRIRWRPPRLPRPRPRPVACPRP	-0.052
RRIRERPPRLPRPRPRPGGCPRP	1.44

Sequence	shrunken log2 fold change
RRIRLRPPRLPRPRPRPTNKPRP	-0.264
RRIRYRPPRLPRPRPRPMAHPRP	-0.0234
RRIRFRPPRLPRPRPRPQKCPRP	-0.332
RRIRPRPPRLPRPRPRPQLNPRP	-0.0703
RRIRFRPPRLPRPRPRPLNDPRP	-0.839
RRIRFRPPRLPRPRPRPRKCPRP	-0.0611
RRIRARPPRLPRPRPRPIDNPRP	-0.0987
RRIRTRPPRLPRPRPRPMARPRP	0.193
RRIRQRPPRLPRPRPRPYIDPRP	-0.606
RRIRTRPPRLPRPRPRPFWPPRP	0.178
RRIRNRPPRLPRPRPRPVYLPRP	-0.216
RRIRWRPPRLPRPRPRPTARPRP	0.0278
RRIRIRPPRLPRPRPRPNFRPRP	-0.297
RRIRWRPPRLPRPRPRPLTGPRP	-0.396
RRIRVRPPRLPRPRPRPCSCPRP	0.141
RRIRRRPPRLPRPRPRPDEPPRP	-0.0328
RRIRRRPPRLPRPRPRPKESPRP	0.023
RRIRFRPPRLPRPRPRPAGAPRP	0.515
RRIRDRPPRLPRPRPRPWIWPRP	0.188
RRIRLRPPRLPRPRPRPGPQPRP	0.228
RRIRYRPPRLPRPRPRPAGTPRP	-0.0595
RRIRHRPPRLPRPRPRPWFKPRP	0.0141
RRIRQRPPRLPRPRPRPIDCPRP	0.0167
RRIRYRPPRLPRPRPRPLDLPRP	-0.0215
RRIRDRPPRLPRPRPRPTLWPRP	2.36

Sequence	shrunken log2 fold change
RRIRMRPPRLPRPRPRPFVEPRP	-0.0699
RRIRTRPPRLPRPRPRPGNSPRP	-0.169
RRIRNRPPRLPRPRPRPAAPPRP	0.331
RRIRKRPPRLPRPRPRPDHYPRP	-0.0322
RRIRLRPPRLPRPRPRPVAAPRP	0.382
RRIRYRPPRLPRPRPRPIHHPRP	-1.62
RRIRKRPPRLPRPRPRPIPLPRP	0.0106
RRIRGRPPRLPRPRPRPMGAPRP	0.821
RRIRARPPRLPRPRPRPDDRPRP	-0.149
RRIRTRPPRLPRPRPRPYQCPRP	-0.0724
RRIRRRPPRLPRPRPRPDLGPRP	0.104
RRIRDRPPRLPRPRPRPTWQPRP	0.542
RRIRIRPPRLPRPRPRPQYNPRP	-1.12
RRIRGRPPRLPRPRPRPMSFPRP	0.308
RRIRCRPPRLPRPRPRPRGCPRP	0.395
RRIRKRPPRLPRPRPRPEAGPRP	1.17
RRIRCRPPRLPRPRPRPDIKPRP	-0.336
RRIRWRPPRLPRPRPRPHRGPRP	-0.0412
RRIRERPPRLPRPRPRPPTDPRP	-0.0968
RRIRHRPPRLPRPRPRPRIKPRP	-0.0701
RRIRGRPPRLPRPRPRPDSEPRP	0.321
RRIRLRPPRLPRPRPRPGSLPRP	-0.0743
RRIRLRPPRLPRPRPRPFEKPRP	-0.0511
RRIRPRPPRLPRPRPRPAYHPRP	-0.129
RRIRIRPPRLPRPRPRPPFTPRP	0.0753

Sequence	shrunken log2 fold change
RRIRTRPPRLPRPRPRPACAPRP	0.441
RRIRPRPPRLPRPRPRPMWIPRP	-0.237
RRIRGRPPRLPRPRPRPNTNPRP	0.256
RRIRYRPPRLPRPRPRPYQRPRP	-0.00973
RRIRMRPPRLPRPRPRPDMHPRP	1.15
RRIRDRPPRLPRPRPRPTERPRP	0.463
RRIRKRPPRLPRPRPRPTDEPRP	0.819
RRIRPRPPRLPRPRPRPKLSPRP	0.331
RRIRRRPPRLPRPRPRPHIRPRP	0.00753
RRIRVRPPRLPRPRPRPHMAPRP	-0.339
RRIRVRPPRLPRPRPRPPSIPRP	0.231
RRIRCRPPRLPRPRPRPMWVPRP	0.121
RRIRTRPPRLPRPRPRPQCRPRP	-0.259
RRIRKRPPRLPRPRPRPRPIPRP	0.824
RRIRARPPRLPRPRPRPCCNPRP	0.278
RRIRCRPPRLPRPRPRPCPPPRP	-0.0764
RRIRARPPRLPRPRPRPDRFPRP	0.414
RRIRGRPPRLPRPRPRPTGVPRP	0.742
RRIRIRPPRLPRPRPRPVENPRP	-0.0976
RRIRDRPPRLPRPRPRPAECPRP	0.232
RRIRMRPPRLPRPRPRPGNYPRP	-0.0658
RRIRSRPPRLPRPRPRPPIAPRP	2.36
RRIRVRPPRLPRPRPRPSSEPRP	-0.327
RRIRPRPPRLPRPRPRPYMWPRP	-0.455
RRIRMRPPRLPRPRPRPEKVPRP	1.45

Sequence	shrunken log2 fold change
RRIRHRPPRLPRPRPRPAMDPRP	-0.221
RRIRFRPPRLPRPRPRPVNGPRP	-0.746
RRIRVRPPRLPRPRPRPTRWPRP	0.173
RRIRDRPPRLPRPRPRPCPGPRP	-0.0964
RRIRYRPPRLPRPRPRPYNYPRP	-1.3
RRIRKRPPRLPRPRPRPLNHPRP	-0.0528
RRIRDRPPRLPRPRPRPRSKPRP	0.401
RRIRNRPPRLPRPRPRPTSMPRP	0.0812
RRIRNRPPRLPRPRPRPSMYPRP	-0.309
RRIRDRPPRLPRPRPRPHPHPRP	-0.0722
RRIRQRPPRLPRPRPRPWFPPRP	-0.156
RRIRARPPRLPRPRPRPDPAPRP	1.3
RRIRFRPPRLPRPRPRPISNPRP	-0.48
RRIRERPPRLPRPRPRPLQWPRP	0.499
RRIRHRPPRLPRPRPRPTIMPRP	-0.362
RRIRIRPPRLPRPRPRPKWMPRP	-0.178
RRIRTRPPRLPRPRPRPALDPRP	0.196
RRIRKRPPRLPRPRPRPGSTPRP	0.131
RRIRIRPPRLPRPRPRPTLGPRP	-0.139
RRIRNRPPRLPRPRPRPAWTPRP	0.182
RRIRARPPRLPRPRPRPGITPRP	0.335
RRIRGRPPRLPRPRPRPKIMPRP	0.322
RRIRDRPPRLPRPRPRPAKPPRP	0.419
RRIRQRPPRLPRPRPRPSKQPRP	-0.0831
RRIRCRPPRLPRPRPRPENFPRP	-0.32

Sequence	shrunken log2 fold change
RRIRCRPPRLPRPRPRPGKAPRP	0.00811
RRIRKRPPRLPRPRPRPMFYPRP	-0.169
RRIRPRPPRLPRPRPRPREGPRP	0.891
RRIRNRPPRLPRPRPRPMKDPRP	0.145
RRIRHRPPRLPRPRPRPHSHPRP	-0.41
RRIRFRPPRLPRPRPRPDFIPRP	-0.395
RRIRLRPPRLPRPRPRPHCFPRP	-0.0782
RRIRTRPPRLPRPRPRPEFDPRP	0.214
RRIRARPPRLPRPRPRPHCYPRP	0.101
RRIRFRPPRLPRPRPRPPMSPRP	0.0816
RRIRVRPPRLPRPRPRPVLNPRP	-0.2
RRIRGRPPRLPRPRPRPWNHPRP	-0.052
RRIRYRPPRLPRPRPRPAPVPRP	0.125
RRIRKRPPRLPRPRPRPCAQPRP	0.208
RRIRQRPPRLPRPRPRPNKQPRP	0.0262
RRIRVRPPRLPRPRPRPCCKPRP	0.905
RRIRFRPPRLPRPRPRPQYFPRP	-0.416
RRIRDRPPRLPRPRPRPDIEPRP	0.105
RRIRLRPPRLPRPRPRPCRNPRP	-0.241
RRIRWRPPRLPRPRPRPNFWPRP	0.224
RRIRLRPPRLPRPRPRPQDMPRP	-0.169
RRIRARPPRLPRPRPRPDPQPRP	0.698
RRIRLRPPRLPRPRPRPRMVPRP	0.0504
RRIRWRPPRLPRPRPRPLSVPRP	0.0836
RRIRWRPPRLPRPRPRPNATPRP	0.736
